Results on 1 substance are retold here after article PMC4685956.

For this test, the target named is H3.2–H4 tetramer (human) (UniProt Q71DI3). Briefly: SEC-MALS.

Consider “MCM2 HBD(43–160) (from UniProt P49736 43-160) (domain or fragment)”, for which the stoichiometry N (MCM2 HBD per H3–H4 tetramer) came to 2.
